# B1: GFP-ATG13(1–230):ATG101 [human] / GST-WIPI2 [not stated] (parent complex)
# chain 1: METDLNSQDRKDLDKFIKFFALKTVQVIVQARLGEKICTRSSSSPTGSDWFNLAIKDIPEVTHEAKKALAGQLPAVGRSMCVEISLKTSEGDSMELEIWCLEMNEKCDKEIKVSYTVYNRLSLLLKSLLAITRVTPAYRLSRKQGHEYVILYRIYFGEVQLSGLGEGFQTVRVGTVGTPVGTITLSCAYRINLAFMSTRQFERTPPIMGIIIDHFVDRPYPSSSPMHPCN
# chain 2: MNCRSEVLEVSVEGRQVEEAMLAVLHTVLLHRSTGKFHYKKEGTYSIGTVGTQDVDCDFIDFTYVRVSSEELDRALRKVVGEFKDALRNSGGDGLGQMSLEFYQKKKSRWPFSDECIPWEVWTVKVHVVALATEQERQICREKVGEKLCEKIINIVEVMNRHEYLPKMPTQSEVDNVFDTGLRDVQPYLYKISFQITDALGTSVTTTMRRLIKDTLAL
# chain 3: MNLASQSGEAGAGQLLFANFNQDNTSLAVGSKSGYKFFSLSSVDKLEQIYECTDTEDVCIVERLFSSSLVAIVSLKAPRKLKVCHFKKGTEICNYSYSNTILAVKLNRQRLIVCLEESLYIHNIRDMKVLHTIRETPPNPAGLCALSINNDNCYLAYPGSATIGEVQVFDTINLRAANMIPAHDSPLAALAFDASGTKLATASEKGTVIRVFSIPEGQKLFEFRRGVKRCVSICSLAFSMDGMFLSASSNTETVHIFKLETVKEKPPEEPTTWTGYFGKVLMASTSYLPSQVTEMFNQGRAFATVRLPFCGHKNICSLATIQKIPRLLVGAADGYLYMYNLDPQEGGECALMKQHRLDGSLETTNEILDSASHDCPLVTQTYGAAAGKAYTDDLGAVGGACLEDEASALRLDEDSEHPPMILRTD
# B2: GFP-ATG13(1–230):ATG101 [human] / GST-WIPI3 [not stated] (parent complex)
# chain 1: B1 chain 1
# chain 2: B1 chain 2
# chain 3: not shown
# Variants of: B1
# Assay: GST beads binding assay (microscopy-based, Glutathione Sepharose beads); 20 mM HEPES (pH 7.5), 200 mM NaCl, 2 mM MgCl2, 1 mM TCEP; room temperature, 60 minutes; read off a plot
row,Variant,response [A.U.]
1,"chain 1 METDLNSQDRKDLDKFIKFFALKTVQVIVQARLGEKICTRSSSSPTGSDWFNLAIKDIPEVTHEAKKALAGQLPAVGRSMCVEISLKTSEGDSMELEIWCLEMNEKCDKEIKVSYTVYNRLSLLLKSLLAITRVTPAYRLSRKQGHEYVILYRIYFGEVQLSGLGEGFQTVRVGTVGTPVGTITLSCAYRINLAFMSTRQFERTPPIMGIIIDDDVDRPYPSSSPMHPCN [chain 1 H214D, chain 1 F215D]",~21000

# Variants of: B2
# Assay: GST beads binding assay (microscopy-based, Glutathione Sepharose beads); 0.5 μM GST bait; 20 mM HEPES (pH 7.5), 200 mM NaCl, 2 mM MgCl2, 1 mM TCEP; room temperature, 60 minutes; read off a plot
row,Variant,response [A.U.]
1,"chain 1 H214D, chain 1 F215D",~12000
